Residue numbers refer to the chain shown, from its start. In names and notes the source's numbering stands.

This series addresses fusion protein PRV.

Sequence of fusion protein PRV (chain, as listed by the source): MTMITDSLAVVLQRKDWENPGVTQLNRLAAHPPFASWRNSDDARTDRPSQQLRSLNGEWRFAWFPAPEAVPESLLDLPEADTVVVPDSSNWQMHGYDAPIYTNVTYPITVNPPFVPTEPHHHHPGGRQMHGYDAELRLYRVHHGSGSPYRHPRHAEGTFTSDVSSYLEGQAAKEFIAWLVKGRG

B1: OmpT protease variant OmpT D97K (protein)
chain: STETLSFTPDNINADISLGTLSGKTKERVYLAEEGGRKVSQLDWKFNNAAIIKGAINWDLMPQISIGAAGWTTLGSRGGNMVDQDWMDSSNPGTWTKESRHPDTQLNYANEFDLNIKGWLLNEPNYRLGLMAGYQESRYSFTARGGSYIYSSEEGFRDDIGSFPNGERAIGYKQRFKMPYIGLTGSYRYEDFELGGTFKYSGWVESSDNDEHYDPGKRITYRSKVKDQNYYSVAVNAGYYVTPNAKVYVEGAWNRVTNKKGNTSLYDHNNNTSDYSKNGAGIENYNFITTAGLKYTF
For B1, the relative cleavage efficiency result is recorded as “less than 3.0%”.

B2: OmpT protease variant OmpT D97R (protein)
chain: B1 chain with K97R
As for B2, the relative cleavage efficiency result was “less than 3.0%”.

Source of the values: patent publication US20070077617.
